Laboratory results as given in patent US11584938B2, “Plant EPSPS mutant containing L195P and S247G mutations and encoding gene and use thereof” (GEVOTO LLC, priority 2017, dated 2023).
Entries after “also recorded” stand apart in the source; their conditions may differ.

Test system: double knockout E. coli (EPSPS defective E. coli, EDCE)
Experiment: growth of EPSPS defective E. coli transformed by the EPSPS gene in M9 culture media containing different glyphosate concentrations
Type: cell-based, E. coli DH5α
Details: for EPSPS enzyme activity: concluded from growth of defective E. coli at 0 mM glyphosate
Source text: A method for detecting the glyphosate resistance of the soybean EPSPS mutant G1 provided in Example 1 and the soybean EPSPS mutant G3 provided in Example 2 is as follows:
according to the sequence of the nucleic acid molecule provided in the example, synthesizing the encoding gene that encodes the soybean EPSPS mutant G1 or G3 using a chemical synthesis method, introducing enzyme sites (Pac1 and Sbf1) at two ends thereof, connecting to an expression vector (for example, a pADV5 vector, the structure of which is as shown in FIG. 15) that has undergone the same restriction enzyme digestion treatment under the action of ligase after restriction enzyme digestion, then transforming double knockout E. coli, picking positive colonies after verification, inoculating the positive colonies to M9 culture media containing different glyphosate concentrations for growth, and observing the growth situation of the E. coli.
The wild-type soybean EPSPS (with an amino acid sequence represented by SEQ ID NO: 2 and an encoding gene sequence represented by SEQ ID NO: 1) and the soybean EPSPS mutant G2 (with an amino acid sequence represented by SEQ ID NO: 6, and a corresponding encoding gene sequence represented by SEQ ID NO: 5) merely containing the mutation P114(101)S were taken as controls.
In the above, the M9 basal culture medium can be prepared by the following method:
5×M9 salt solution: 6.78 g of Na2HPO4, 3.0 g of KH2PO4, 0.5 g of NaCl, and 1.0 g of NH4Cl were weighed, added with ddH2O to 200 ml, and subjected to high-temperature and high-pressure sterilization treatment;
20% glucose: 20 g of glucose was weighed, added with 80 ml of ddH2O for dissolving, diluted to 100 ml, and subjected to filtration and sterilization treatment;
1.0 M MgSO4: 24.6 g of MgSO4-7H2O was weighed, dissolved with 80 ml of ddH2O, diluted to 100 ml, and subjected to sterilization treatment;
1.0 M CaCl2: 11.1 g of CaCl2 was weighed, dissolved with 80 ml of ddH2O, diluted to 100 ml, and subjected to sterilization treatment; and
1000 ml of the M9 basal culture media were prepared by adding ddH2O to 200 ml of 5×M9 salt solution, 20 ml of 20% glucose, 2 ml of 1.0 M MgSO4 and 0.1 ml of 1.0 M CaCl2 to make up to 1000 ml.
In the above, the E. coli used was double knockout E. coli, namely, EPSPS defective E. coli (E. coli DH5α with EPSPS gene and C-P Lyase gene being knocked out, named as EDCE, wherein for a preparation method thereof, reference can be made to a Chinese invention patent with the filing number CN2016103256926).
The glyphosate resistance of the soybean EPSPS mutant G4 provided in Example 3 and the soybean EPSPS mutant G5 provided in Example 4 was verified with reference to the detection method in Experiment Example 1.
The wild-type wheat EPSPS (with an amino acid sequence represented by SEQ ID NO: 14, and a corresponding encoding gene sequence represented by SEQ ID NO: 13) and the wheat EPSPS mutant T2 (with an amino acid sequence represented by SEQ ID NO: 18, and a corresponding encoding gene sequence represented by SEQ ID NO: 17) merely containing the mutation P118(101)S were taken as controls to verify the glyphosate resistance of the wheat EPSPS mutants T1 and T3 provided in Example 5 and Example 6, and reference can be made to Experiment Example 1 for the method.
A method for verifying the glyphosate resistance of the wheat EPSPS mutants T4, T5, and T6 provided in Examples 7-9 is the same as that in Experiment Example 3.
The wild-type rice EPSPS R0 (with an amino acid sequence represented by SEQ ID NO: 28, and a corresponding encoding gene sequence represented by SEQ ID NO: 27) and the rice EPSPS mutant R2 (with an amino acid sequence represented by SEQ ID NO: 32, and a corresponding encoding gene sequence represented by SEQ ID NO: 31) merely containing the mutation P116(101)S were taken as controls to verify the glyphosate resistance of the rice EPSPS mutants R1 and R3 provided in Examples 10 and 11, and reference can be made to Experiment Example 1 for the method. […]

[1] = culture media containing 0 mM glyphosate
[2] = culture media containing 5 mM glyphosate
[3] = culture media containing 10 mM glyphosate
[4] = culture media containing 20 mM glyphosate

Row | Molecule | growth of the E. coli transformed by the EPSPS [1] | growth of the E. coli transformed by the EPSPS [2] | growth of the E. coli transformed by the EPSPS [3] | EPSPS enzyme activity | growth of the transformed E. coli compared with E. coli transformed by the control EPSPS named in the value [3] | growth of the E. coli transformed by the EPSPS [4] | growth of the transformed E. coli compared with E. coli transformed by the control EPSPS named in the value [4]
1 | R0: wild-type rice EPSPS, amino acid sequence SEQ ID NO: 28; control (protein, listed as Oryza sativa) MASNAAAAAAKAEEIVLQPIREISGAVQLPGSKSLSNRILLLSALSEGTTVVDNLLNSEDVHYMLEALKALGLSVEADKVAKRAVVVGCGGKFPVEKDAKEEVQLFLGNAGTAMRPLTAAVTAAGGNATYVLDGVPRMRERPIGDLVVGLKQLGADVDCFLGTECPPVRVKGIGGLPGGKVKLSGSISSQYLSALLMAAPLALGDVEIEIIDKLISIPYVEMTLRLMERFGVKAEHSDSWDRFYIKGGQKYKSPGNAYVEGDASSASYFLAGAAITGGTVTVQGCGTTSLQGDVKFAEVLEMMGAKVTWTDTSVTVTGPPREPYGKKHLKAVDVNMNKMPDVAMTLAVVALFADGPTAIRDVASWRVKETERMVAIRTELTKLGASVEEGPDYCIITPPEKLNITAIDTYDDHRMAMAFSLAACADVPVTIRDPGCTRKTFPNYFDVLSTFVRN | could grow | could not grow | could not grow |  |  |  | 
2 | R3: rice EPSPS mutant, SEQ ID NO: 34, mutations L214(195)P and P116(101)S (protein) MASNAAAAAAKAEEIVLQPIREISGAVQLPGSKSLSNRILLLSALSEGTTVVDNLLNSEDVHYMLEALKALGLSVEADKVAKRAVVVGCGGKFPVEKDAKEEVQLFLGNAGTAMRSLTAAVTAAGGNATYVLDGVPRMRERPIGDLVVGLKQLGADVDCFLGTECPPVRVKGIGGLPGGKVKLSGSISSQYLSALLMAAPLALGDVEIEIIDKPISIPYVEMTLRLMERFGVKAEHSDSWDRFYIKGGQKYKSPGNAYVEGDASSASYFLAGAAITGGTVTVQGCGTTSLQGDVKFAEVLEMMGAKVTWTDTSVTVTGPPREPYGKKHLKAVDVNMNKMPDVAMTLAVVALFADGPTAIRDVASWRVKETERMVAIRTELTKLGASVEEGPDYCIITPPEKLNITAIDTYDDHRMAMAFSLAACADVPVTIRDPGCTRKTFPNYFDVLSTFVRN | could grow |  | could grow | normal EPSPS enzyme activity | superior to that of the E. coli transformed by R2 |  | 
3 | R2: rice EPSPS mutant, SEQ ID NO: 32, merely containing the mutation P116(101)S; control (protein) MASNAAAAAAKAEEIVLQPIREISGAVQLPGSKSLSNRILLLSALSEGTTVVDNLLNSEDVHYMLEALKALGLSVEADKVAKRAVVVGCGGKFPVEKDAKEEVQLFLGNAGTAMRSLTAAVTAAGGNATYVLDGVPRMRERPIGDLVVGLKQLGADVDCFLGTECPPVRVKGIGGLPGGKVKLSGSISSQYLSALLMAAPLALGDVEIEIIDKLISIPYVEMTLRLMERFGVKAEHSDSWDRFYIKGGQKYKSPGNAYVEGDASSASYFLAGAAITGGTVTVQGCGTTSLQGDVKFAEVLEMMGAKVTWTDTSVTVTGPPREPYGKKHLKAVDVNMNKMPDVAMTLAVVALFADGPTAIRDVASWRVKETERMVAIRTELTKLGASVEEGPDYCIITPPEKLNITAIDTYDDHRMAMAFSLAACADVPVTIRDPGCTRKTFPNYFDVLSTFVRN | could grow |  | could grow | normal EPSPS enzyme activity |  | could grow | 
4 | R4: rice EPSPS mutant, SEQ ID NO: 36, mutation S267(247)G (protein) MASNAAAAAAKAEEIVLQPIREISGAVQLPGSKSLSNRILLLSALSEGTTVVDNLLNSEDVHYMLEALKALGLSVEADKVAKRAVVVGCGGKFPVEKDAKEEVQLFLGNAGTAMRPLTAAVTAAGGNATYVLDGVPRMRERPIGDLVVGLKQLGADVDCFLGTECPPVRVKGIGGLPGGKVKLSGSISSQYLSALLMAAPLALGDVEIEIIDKLISIPYVEMTLRLMERFGVKAEHSDSWDRFYIKGGQKYKSPGNAYVEGDASSAGYFLAGAAITGGTVTVQGCGTTSLQGDVKFAEVLEMMGAKVTWTDTSVTVTGPPREPYGKKHLKAVDVNMNKMPDVAMTLAVVALFADGPTAIRDVASWRVKETERMVAIRTELTKLGASVEEGPDYCIITPPEKLNITAIDTYDDHRMAMAFSLAACADVPVTIRDPGCTRKTFPNYFDVLSTFVRN | could grow |  | could grow normally | normal EPSPS enzyme activity | superior to that of the E. coli transformed by R1 | grew obviously | 
5 | R1: rice EPSPS mutant, SEQ ID NO: 30, mutation L214(195)P (protein) MASNAAAAAAKAEEIVLQPIREISGAVQLPGSKSLSNRILLLSALSEGTTVVDNLLNSEDVHYMLEALKALGLSVEADKVAKRAVVVGCGGKFPVEKDAKEEVQLFLGNAGTAMRPLTAAVTAAGGNATYVLDGVPRMRERPIGDLVVGLKQLGADVDCFLGTECPPVRVKGIGGLPGGKVKLSGSISSQYLSALLMAAPLALGDVEIEIIDKPISIPYVEMTLRLMERFGVKAEHSDSWDRFYIKGGQKYKSPGNAYVEGDASSASYFLAGAAITGGTVTVQGCGTTSLQGDVKFAEVLEMMGAKVTWTDTSVTVTGPPREPYGKKHLKAVDVNMNKMPDVAMTLAVVALFADGPTAIRDVASWRVKETERMVAIRTELTKLGASVEEGPDYCIITPPEKLNITAIDTYDDHRMAMAFSLAACADVPVTIRDPGCTRKTFPNYFDVLSTFVRN | could grow | could grow normally | grew obviously; also recorded: could grow normally | normal EPSPS enzyme activity |  | grew obviously | 
6 | R5: rice EPSPS mutant, SEQ ID NO: 38, mutations S267(247)G and P116(101)S (protein) MASNAAAAAAKAEEIVLQPIREISGAVQLPGSKSLSNRILLLSALSEGTTVVDNLLNSEDVHYMLEALKALGLSVEADKVAKRAVVVGCGGKFPVEKDAKEEVQLFLGNAGTAMRSLTAAVTAAGGNATYVLDGVPRMRERPIGDLVVGLKQLGADVDCFLGTECPPVRVKGIGGLPGGKVKLSGSISSQYLSALLMAAPLALGDVEIEIIDKLISIPYVEMTLRLMERFGVKAEHSDSWDRFYIKGGQKYKSPGNAYVEGDASSAGYFLAGAAITGGTVTVQGCGTTSLQGDVKFAEVLEMMGAKVTWTDTSVTVTGPPREPYGKKHLKAVDVNMNKMPDVAMTLAVVALFADGPTAIRDVASWRVKETERMVAIRTELTKLGASVEEGPDYCIITPPEKLNITAIDTYDDHRMAMAFSLAACADVPVTIRDPGCTRKTFPNYFDVLSTFVRN | could grow |  |  | normal EPSPS enzyme activity |  | could grow | obviously superior to that of the E. coli transformed by R2
